Data on 2 substances can be found in doi:10.1101/2020.10.12.335539.

Assay [1] addresses HCMV-IgG hyperimmunoglobulin preparation (Cytotect) (human). The experiment in a line: flow cytometry on cells. Background: Flow cytometry measures light scatter and fluorescence of single cells or particles in a stream.
For assay [2], the target named is humanized anti-hCD20 IgG1 (Rituximab) (human). The experiment in a line: flow cytometry on cells.

As to “HCMV gp68 on the surface of HCMV AD169/pBAC2-infected MRC-5 cells (from UniProt P16739 24-345) (natural protein)”, the percent reduction of FcγRIII binding to opsonized infected cells in assay [1] is 60%.
Substance CD4-tailed gp68 (gp68-CD4) registered a percent reduction of FcγRIII binding to immune complexes in assay [2] of 60%.
